The text below walks through data of a protein production outcome set (Wang et al. 2014).

The series in a line: label from the status in PepcDB records.
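Further: failed if final PepcDB status was selected cloned or expressed and not failed if soluble or beyond.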

As to “MATIQAFWRFSRPHTIIGTTLSVWAVYLLTILGDGNSVNSPASLDLVFGAWLACLLGNVYIVGLNQLWDVDIDRINKPNLPLANGDFSIAQGRWIVGLCGVASLAIAWGLGLWLGLTVGISLIIGTAYSVPPVRLKRFSLLAALCILTVRGIVVNLGLFLFFRIGLGYPPTLITPIWVLTLFILVFTVAIAIFKDVPDMEGDRQFKIQTLTLQIGKQNVFRGTLILLTGCYLAMAIWGLWAAMPLNTAFLIVSHLCLLALLWWRSRDVHLESKTEIASFYQFIWKLFFLEYLLYPLALWLPNFSNTIF”, the protein production result was “failed”. Take “MATKHEQILTYIDSLPVGEKISVRRIAKEMKVSEGTAYRAIKEAENKGFVSTIERVGTIRIEQKKKENIEKLTYAEVVNVIDGQVLGGRAGLHKTLNKFVIGAMELDAMMRYTAAGNLLIVGNRINAHRQALEAGAAVLVTGGFNTDDSIVQLADELELPILSTSYDTFTVAAMINRAIYDQLIKKEIVLVEDILTPADRTVYLSPKDKLEKWYEKNFETGHGRFPVVDDQMKIHGILTSKDIAGHDRNASIEKVMTKNPVTVIGKTSVASAAQMMVWEGIEVLPVTDGHQKLIGMISRQDVLKALQMIQKQPQVGEKLDDIVSRGFKDEGDDKEDQTVYEYEVTPQMTNQLGTISYGVFTTILTQAANRFLRSKKRGELVIESITIFFLKPVQMESVIEVKPRILEAGRKFGKMEVEVHSQGHIVSKAMLMVQLMERS”: the protein production result is reported as “failed”.

In the case of “MATLPASKSASKVALTSEVEDEGIKEHTFQEIEKLQDLGINAADINKLKGSGYCTILSLIQTTKKELCNVKGISEAKVDKILEVASKIENCSSFITANELVQKRSKVLKITTGSTVFDQTLGGGIESMCITELFGENRCGKTQVCHTLAVTAQLPKSLNGGNGKVCYIDTEGTFRPEKVCKIAERYGLDGEAVLDNILYARAFTHEHLYQLLAISAAKMCEEPFALLVVDSIISLFRVDFSGRGELSERQQKLNKTMSILSKLSEQFNIAILITNQVMSDPGATMTFIANPMKPVGGHVIGHASTIRLSLRKGKGDQRVCKVYDAPNLPEVECIFQLSDKGVIDATD”, the protein production result is given as “failed”. In the case of “MATNLIGLDTTQSQKLANALNNLLANYQVFYMNTRGYHWNIQGKEFFELHAKFEEIYTDLQLKIDELAERILTLSARPMHSFSGYLKAAQIKEHTDSIDGRSSMQGLVDGFSILLHQQRDILELAGETGDEGTSALMSDYIREQEKLVWMLNAWLK” it was “not failed”. For “MATPTEHEDLSEQEVTEDEFKTPKIRETPEDIKLEAIVNTIAFHPKQDILAAGDIDGDIYLFSYSCTEGENKELWSSGHHLKSCRKVLFSSDGQKLFSVSKDKAIHIMDVEAGKLETRIPKAHKVPINAMLLIDENIFATGDDEGTLKVWDMRKGTSFMDLKHHEDYISDITIDQAKRTLLTSSGDGTLGVFNIKRRRFELLSEIQNGDLTSVSIMKRGRKVVCGSGEGTIYIFNWNGFGATSDRFAVQAESVDCIVPITDSILCAASTDGVIRAINILPNRVVGSIGQHVGEAIEEIARCRDTHFLASCAHDELIKFWDISSLPDEKVNDYRRRKKKDRRLKALSNKAFDTGQNFFAGLLDTTEENGKEGENDEDDDDEDSDSGSD”, the protein production entry is reported as “not failed”. Regarding “MATQYGALSYSSRTQSPARVMTRVMVEARRVLLGALATAAVVAFMSAVGWVALLALTVTIPFATIVVALAMAIRHFRQDRRALA”, the protein production result is on record as “failed”. For “MATSRLQLEGDDSVHLHITHANLKSFSADARFSPQMSVEAVKEKLWKKCGTSVNSMALELYDDSGSKVAVLSDDSRPLGFFSPFDGFRLHIIDLDPSSVTTGGWLEDTSLVEKYNISEEDYAKRTDSFRKFKEKRVSQNPVAAEAKTKENYMEDLCANIKVGDRCQVEPGEKRGMVKYVGRAESLGPGYWVGIQYDEPLGKHDGMVKGTRFFECPRLQGGMVRPDKVKVGDYPERDPFEEDEI”, the protein production entry was “failed”.

For “MATSSTQLLLSSSSLFHSQITKKPFLLPATKIGVWRPKKSLSLSCRPSASVSAASSAVDVNESVTSEKPTKTLPFRIGHGFDLHRLEPGYPLIIGGIVIPHDRGCEAHSDGDVLLHCVVDAILGALGLPDIGQIFPDSDPKWKGAASSVFIKEAVRFRRLP”, the protein production entry is given as “failed”.

On to “MATTLPRITARVDVDTQDLLAKAAALAGMSSINSFVLNAAIEKAKQVIEREQALKLSQADAVLLMEALDNPAVVNAKLKLASERYESKTQ”, for which the protein production result is “failed”. In the case of “MAVEQPTAHAGGQSPAHAGEQSRIHNIGYRNYDGPRLGRAYARRSLYSQSLRGAYGLGRSVKSKVLPMLLFVVMCVPALIMVAVAVATKAKDLPVDYTRYAIIMQAVIGLYVASQAPQSVSRDLRFKTVPLYFSRPIETADYVRAKYAALASAMFILTAAPLLVLYVGALLAKLDFTDQTKGFAQGLVSVALLSLLFAGIGLVISAVTPRRGFGIAAVIAVLTISYGAVSTVQAIADAQNSTSAVPWLGLFSPVTLIDGMQTAFLGASSSFPGEAGPSSAQGVVFLIVVLGLIAGCYGLLMRRYRKVGL” it was “failed”.

Take “MAVGDQTEQNYLPKKKKSETEDDKRRKKIVPGSLLKAVVRPGGGDSSPVDGDQVIYHCTVRTLDGVVVESTRSESGGRGVPIRDVLGNSKMILGLLEGIPTMHKGEIAMFKMKPEMHYAEIDCPVSAPENFPKDDELHFEIELLDFSKAKIASDDLGVIKKILNEGEGWESPREPYEVKARISAKSGDGHVIFSHTEEPYFFTFGKSEVPKGLEIGIGTMARKEKAVIYVRKQYLTESPLLHIDQDLEEVHFEVELVHFIQVRDMLGDGRLIKRRIRDGRGEFPMDCPLQDSRLSVHYKGMLLNEEKTVFYDSKIDNNDQPLEFSSGEGLVPEGFEMCTRLMLPGEIALVTCPPDYAYDKFPRPPGVSEGAHVQWEIELLGFETPRDWTGLNFQSIMDEADKIRSTGNRLFKEGKFELAKAKYEKVLREFNHVNPQDEDEGKIFGDTRNMLHLNVAACLLKMGEWRKSIETCNKVLEAKPGHVKGLYRRGMAYIAGGEYDDARNDFNMMIKVDKSSEADATAALLKLKQKEQEAESKARKQFKGLFDKRPGEITEVGSEIREESKTIEEVDETKDNDDDETLEEEGATTVSTERKRKWSEKAWPFLKNVMLQIGIQLGVVLIGILIFQFVSAKFT”: the protein production result is given as “failed”. Consider “MAVLLSSFSPLGINIDMNKNLGVSYSSFPQIHLFKGSTPLRVRTFVVSSRKNSGTGLASEDKKLLLERYGYDANDDFGSQSKKARRKEEKMSGRNSQQVEEVVVVQPRTTHRLLQVLAGTAKRKKLLSLKGMDVRPMMEVVKGAAFGILQAAGGCPTSLRPGRWLDLYSGTGSVGIEAISRGCSEAHFVEMDPWVVSNVLQPNLEHTGFVDASVIHTARVENFLERADKLVGKDGVFDYISVTPPYMEVDYEVLMDQIAKSPAIGENTFILVEYPSRTTMLDSCGCLEKMTDRRFGRTHLAIYGPKWAQKPRKS”, for which the protein production entry is reported as “failed”. With “MAVLSMLGIIDAKPKVGYFYLGQYHASIGTSHFEKMTVSEIMGIPLTVHQKDSVYDVIVHIFMEDAGCAFILDDDDFLCGVVSRKDLLKISIGGGDLSKMPIGMVMTRMPHVTTVLENESLFAAADKLVSRKVDSLPVVRHDKQYPEKFKVIGKLSKTILASLFLEIRDY”, the protein production entry is on record as “failed”. As for “MAVPSFFTLMNLLCGFMALTQVADAAFVLACWLIVLAGFFDLLDGVMARLTGADSPFGVQLDSLSDIVSFGVAPSFLLYGYVLDTFNPLGMIVAALPALCGAVRLARYNMTADESDKEGFEGLPIPGQAIAVVALILAAENSAWDGRFALDSLRVVLPVVIVLSGLMVSSIRFDAIPMPSLEAVRTHPSKIAAYGLAGLLIVGLQERGLLIVLTAYLLHGVGRALYKLMRALVAPVPDERLGS”, the protein production result is recorded as “failed”. Turning to “MAVRFFHTSDWHLGQFFYNHSRHYEHEQFLAWLLKQIKAKQPHALLIAGDIFDVINPSSQAQKQLYQFLADAHALAPHMQTLMIAGNHDSGYRIEQVEPLLEKYNARTVGVIRWNEDKTLNLERLILPVYDENKNVVAWCIALPFLRSAEITGFNEHTNNSQSAIAYLHEQLISEAKRRKTDDQAIILMSHAHMQGGETSDSERPIIIGNEEALSTALFDDAIDYVALGHLHKPQKVQHPHIRYSGSPIPLSFSEINYKHQVVDVNIDPTQSTDKFQFEAIEIPRSIKLHKIRGELNEVIQQLKSLAQGEIESIDLREYIDIEYHTLTPPLPNLRQQFEDALPPKRYRLVRISRQYLSQDNNAAQASKINLEPPTPEKLFEQIWDKKGYHADDDVKKDFMSLVAQAQQQLEDQHKY”, the protein production entry is “failed”.

In the case of “MAVRIVDDLQQLSLLLMFLSTFIFYRYLKKVKRERKLTGFEWTMYFVTQFATLIWAITYFIKHLAES”, the protein production result is reported as “failed”. As to “MAVRVCCHAPPGVSNHLFTFCAGNLTTGFSGGSVTSQKGGAAGLPTCSRRCPRGCLPGSDPLPRHPRRYAPPVTPPVTPPTTPAPRSRARMLELVFPKDTNYHGTAFGGWVLALMDKAASVAAVRHAGGNVVTARMDGVDFHVPIRVGDAVALDARVIRVGRSSMTIRVDVYRENMASGEQQLATGGLFTFVALGEDGKPRPVPPLPEGSTDSEQPDYEARP”, the protein production result is “failed”. Turning to “MAVSKMEKMTIIAAAEKEAAILQAIQGLQIVEVKRIFHSPEEEQALKSQYSFLQAEQSTEQLRKYETMLQQLQELLLFLTRSSGKGLKIKRKVYTLEELEQTFDEETLQSYLTELKNIQESLKQIQTDRQGLEAEEELLGRWQYLDVLPHKQQLKSSYVVHGSINLANKASFLSALSQWPTVYFEEIYQSMHHSYFTLVYLKEHQQSVTELLNQYSFEPLQYRYDVPPKEAYQQVKERYEILQKEEKALKQQLASYHDFYETFCLAEEVLLAVIQREQARQHLLNASSFFILQTWIPVEEKAEILTAIEEKVPKDEIALTFENPTKAEIETDIPVKLANNKLVQPFEMLTEMYSLPKYEEVDPTPAMMPFYLVFFGMMVADIGYGLLMLLLSIIALKAFVLPRGMKRFADFFLILSFPTIIWGFIYGSFFGAALPPIMFGIKSPFPILSTTEDVNTILILSVIFGFIQLVVGLMINGIQLSKQKRYLDSINESYAWLGILFGLALLVVGKLVVKNEGLFTAGAILASLSAIAIIVIPMIQSKAKLKGLAKGLYGLYGVTGYVGDLVSYTRLMALGIAGGSIASAFNMLVEFMPPVARFSVGILLLIVLHALNIFLSLLGAYVHGARLQYVEFFGKFYTGGGRAFNPLKTKEKYVNVEKK”, the protein production result was “failed”. Take “MAVSSGTFSTFLCIKTTSFRNPSTPLSSLRFASHPAAKLRLVRAVTSATESSEPTATNKRVPRGIMKPRPVSPEMQDIVELPEIARTQALKRIWAYIKEHDLQDPQNKREILCDEKLKKIFEGRDRVGFLEIAKLIGPHFL”: the protein production result is “failed”. Under “MAVVASAPGKVLMTGGYLVLEKPNAGLVLSTNARFYAIVKPINEEVKPESWAWKWTDVKLTSPQLSRESMYKLSLNHLTLQSVSASDSRNPFVEHAIQYAIAAAHLATEKDKESLHKLLLQGLDITILGSNDFYSYRNQIESAGLPLTPESLGTLAPFASITFNAAESNGANSKPEVAKTGLGSSAAMTTAVVAALLHYLGVVDLSDPCKEGKFGCSDLDVIHMIAQTSHCLAQGKVGSGFDVSCAVYGSQRYVRFSPEVLSFAQVAVTGLPLNEVIGTILKGKWDNKRTEFSLPPLMNLFLGEPGSGGSSTPSMVGAVKKWQMSDPEKARENWQNLSDANLELETKLNDLSKLAKDHWDVYLRVIKSCSVLTSEKWVLHATEPINEAIIKELLEAREAMLRIRILMRQMGEAASVPIEPESQTQLLDSTMSAEGVLLAGVPGAGGFDAIFAITLGDSGTKLTQAWSSHNVLALLVREDPHGVCLESGDPRTTCITSGVSSIHLE” stands “failed”.
